According to US20250289885A1 (TRUSTEES OF BOSTON UNIVERSITY, published 2025):

Molecular target: T1, human Notch1-derived receptor overexpressed on CHO-K1 cells (human, UniProt P46531 19-1762, limits assumed)
T1 construct: Cells also express H2B-mTurq; also called Notch1 receptors
Assay: fluorescence microscopy of JFX650-labelled probody on CHO-K1 cells overexpressing a human Notch1-derived receptor
Protocol: FIGS. 36A and 36B present data showing Cleavage-Dependent Binding of a Brontictuzumab-Based Probody to Notch1 Receptors. A probody containing a brontictuzumab-based scFv was fused to a TEV cleavable linker and a soluble form of the human Notch1 NRR. Probodies containing either (FIG. 36A) the V1667D NRR mutant NRR, or (FIG. 36B) wild-type NRR were tested. The probodies also contained a HaloTag for labeling with a JFX650 dye. Binding of the probody to Notch1 receptors was tested using uncleaved and TEV protease-cleaved probody. The evaluated cells were based on CHO-K1 celle overexpressing a human Notch1-derived receptor; cells also expressed H2B-mTurq as a fluorescent marker (inset). Brontictuzumab is an antibody that binds the NRR from Notch1 (NRR1). Brontictuzumab (aka OMP-52M51) is originally from Oncomed Pharmaceuticals. This antibody is distinct from the Genentech anti-NRR1 used in our receptor and other Notch1 probody designs.

T1 sequence (P46531 19-1762 limits assumed): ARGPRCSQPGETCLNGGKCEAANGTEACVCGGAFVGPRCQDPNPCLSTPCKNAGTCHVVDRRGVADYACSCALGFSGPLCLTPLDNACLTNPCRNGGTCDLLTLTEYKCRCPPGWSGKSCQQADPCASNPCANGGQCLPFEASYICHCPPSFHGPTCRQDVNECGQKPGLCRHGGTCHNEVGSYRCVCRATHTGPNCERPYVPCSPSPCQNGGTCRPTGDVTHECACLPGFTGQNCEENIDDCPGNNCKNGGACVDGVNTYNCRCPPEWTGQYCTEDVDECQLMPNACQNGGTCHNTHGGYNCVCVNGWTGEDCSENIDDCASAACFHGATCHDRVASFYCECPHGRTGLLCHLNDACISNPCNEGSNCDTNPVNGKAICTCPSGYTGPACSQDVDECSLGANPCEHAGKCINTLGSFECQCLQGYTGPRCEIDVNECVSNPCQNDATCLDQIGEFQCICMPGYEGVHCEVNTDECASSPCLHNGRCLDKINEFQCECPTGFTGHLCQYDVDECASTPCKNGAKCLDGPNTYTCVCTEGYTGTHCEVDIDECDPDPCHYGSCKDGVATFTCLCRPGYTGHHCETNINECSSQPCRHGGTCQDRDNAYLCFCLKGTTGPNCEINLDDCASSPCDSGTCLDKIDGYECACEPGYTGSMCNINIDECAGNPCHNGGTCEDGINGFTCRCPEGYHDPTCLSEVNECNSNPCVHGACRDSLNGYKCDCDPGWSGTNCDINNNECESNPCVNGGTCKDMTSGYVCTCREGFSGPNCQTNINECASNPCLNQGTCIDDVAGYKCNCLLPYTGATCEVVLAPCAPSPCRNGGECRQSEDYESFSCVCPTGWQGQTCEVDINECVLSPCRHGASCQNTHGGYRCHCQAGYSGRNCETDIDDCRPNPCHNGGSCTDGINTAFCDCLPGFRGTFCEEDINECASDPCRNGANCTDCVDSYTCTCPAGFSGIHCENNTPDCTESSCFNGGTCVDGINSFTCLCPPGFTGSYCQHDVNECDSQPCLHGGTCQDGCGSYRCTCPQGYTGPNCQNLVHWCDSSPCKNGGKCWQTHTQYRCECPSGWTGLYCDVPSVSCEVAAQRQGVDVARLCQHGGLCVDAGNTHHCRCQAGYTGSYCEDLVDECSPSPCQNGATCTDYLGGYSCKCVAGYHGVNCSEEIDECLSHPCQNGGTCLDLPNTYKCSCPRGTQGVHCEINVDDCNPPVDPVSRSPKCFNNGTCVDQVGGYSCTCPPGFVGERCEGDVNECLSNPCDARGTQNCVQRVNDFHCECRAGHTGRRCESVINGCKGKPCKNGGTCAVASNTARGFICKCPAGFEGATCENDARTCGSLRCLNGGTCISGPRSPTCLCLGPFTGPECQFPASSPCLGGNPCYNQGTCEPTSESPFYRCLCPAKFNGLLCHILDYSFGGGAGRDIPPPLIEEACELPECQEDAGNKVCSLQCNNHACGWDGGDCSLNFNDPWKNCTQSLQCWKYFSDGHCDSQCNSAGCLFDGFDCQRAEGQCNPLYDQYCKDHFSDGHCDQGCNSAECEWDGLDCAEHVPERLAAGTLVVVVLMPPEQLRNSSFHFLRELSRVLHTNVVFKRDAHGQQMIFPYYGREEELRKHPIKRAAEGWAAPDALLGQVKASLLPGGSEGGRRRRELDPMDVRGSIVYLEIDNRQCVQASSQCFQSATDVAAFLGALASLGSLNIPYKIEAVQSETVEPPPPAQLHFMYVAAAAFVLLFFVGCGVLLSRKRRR

B1: TEV-cleavable Anti-Notch1 probody, with brontictuzumab scFv, Wild-type NRR (HaloTag-brontictuzumab-scFv-TEVcs-hNRR1^WT), intact (uncleaved) (other)
chain: YPYDVPDYATGMAEIGTGFPFDPHYVEVLGERMHYVDVGPRDGTPVLFLHGNPTSSYVWRNIIPHVAPTHRCIAPDLIGMGKSDKPDLGYFFDDHVRFMDAFIEALGLEEVVLVIHDWGSALGFHWAKRNPERVKGIAFMEFIRPIPTWDEWPEFARETFQAFRTTDVGRKLIIDQNVFIEGTLPMGVVRPLTEVEMDHYREPFLNPVDREPLWRFPNELPIAGEPANIVALVEEYMDWLHQSPVPKLLFWGTPGVLIPPAEAARLAKSLPNCKAVDIGPGLNLLQEDNPDLIGSEIARWLSTLEISGGGGGSTGDGGGGQVQLVQSGAEVKKPGASVKISCKVSGYTLRGYWIEWVRQAPGKGLEWIGQILPGTGRTNYNEKFKGRVTMTADTSTDTAYMELSSLRSEDTAVYYCARFDGNYGYYAMDYWGQGTTVTVSSGGSSRSSSSGGGGSGGGGQAVVTQEPSLTVSPGGTVTLTCRSSTGAVTTSNYANWFQQKPGQAPRTLIGGTNNRAPGVPARFSGSLLGGKAALTLSGAQPEDEAEYYCALWYSNHWVFGGGTKLTVLGSNSGGTLEGGGSGENLYFQGGGGGRTGGGSEQKLISEEDLGGGSILDYSFGGGAGRDIPPPLIEEACELPECQEDAGNKVCSLQCNNHACGWDGGDCSLNFNDPWKNCTQSLQCWKYFSDGHCDSQCNSAGCLFDGFDCQRAEGQCNPLYDQYCKDHFSDGHCDQGCNSAECEWDGLDCAEHVPERLAAGTLVVVVLMPPEQLRNSSFHFLRELSRVLHTNVVFKRDAHGQQMIFPYYGREEELRKHPIKRAAEGWAAPDALLGQVKASLLPGGSEGGRRRRELDPMDVRGSIVYLEIDNRQCVQASSQCFQSATDVAAFLGALASLGSLNIPYKIEAVQSETVEPGSLVPRGSSHHHHHHGPV
modifications: HaloTag labelled with JFX650 dye
notes: also called Brontictuzumab-based probody, wild-type NRR
binding result: no binding
